# Measured values as given in US20050032064, “Method and device for identifying substances capable of modulating adipocyte differentiation” (published 2005).
# T1: RXR ALPHA (Mus musculus, UniProt P28700 P28700:1-467)
# T1 sequence: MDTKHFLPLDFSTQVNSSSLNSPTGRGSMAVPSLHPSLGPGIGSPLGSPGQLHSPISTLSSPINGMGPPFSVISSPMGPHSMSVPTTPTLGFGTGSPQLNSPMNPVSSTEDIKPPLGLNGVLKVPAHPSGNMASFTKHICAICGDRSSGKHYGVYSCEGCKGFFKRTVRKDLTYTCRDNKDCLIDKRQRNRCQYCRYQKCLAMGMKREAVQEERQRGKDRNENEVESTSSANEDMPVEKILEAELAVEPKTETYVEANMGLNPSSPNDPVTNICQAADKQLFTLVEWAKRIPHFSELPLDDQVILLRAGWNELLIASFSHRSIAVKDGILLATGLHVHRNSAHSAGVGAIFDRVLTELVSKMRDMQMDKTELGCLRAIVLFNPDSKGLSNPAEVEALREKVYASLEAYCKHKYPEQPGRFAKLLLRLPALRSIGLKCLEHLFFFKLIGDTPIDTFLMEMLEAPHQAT
# T2: REV-ERB ALPHA (NR1D1) (Homo sapiens, UniProt P20393 SEQ:1-614)
# T2 sequence: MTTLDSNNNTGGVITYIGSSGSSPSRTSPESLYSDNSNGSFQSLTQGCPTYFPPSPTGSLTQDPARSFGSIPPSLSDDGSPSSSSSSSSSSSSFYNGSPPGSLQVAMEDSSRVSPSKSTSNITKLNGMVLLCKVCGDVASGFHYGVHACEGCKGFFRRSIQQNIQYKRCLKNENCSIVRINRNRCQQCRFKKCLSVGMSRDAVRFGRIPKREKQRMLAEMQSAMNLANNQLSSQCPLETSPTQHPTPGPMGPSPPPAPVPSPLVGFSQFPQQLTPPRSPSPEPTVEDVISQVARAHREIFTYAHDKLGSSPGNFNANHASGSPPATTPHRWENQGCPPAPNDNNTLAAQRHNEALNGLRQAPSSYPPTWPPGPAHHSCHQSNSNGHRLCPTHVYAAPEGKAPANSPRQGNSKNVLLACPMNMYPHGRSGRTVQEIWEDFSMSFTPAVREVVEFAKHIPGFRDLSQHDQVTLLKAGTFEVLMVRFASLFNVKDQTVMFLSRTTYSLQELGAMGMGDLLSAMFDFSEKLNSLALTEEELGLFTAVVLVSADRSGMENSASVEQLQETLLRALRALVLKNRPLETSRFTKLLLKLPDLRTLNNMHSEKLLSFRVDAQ
# Tests used:
# [1] = biological target: PPAR GAMMA / RXR ALPHA heterodimer (Mus musculus, UniProt P37238;P28700 P37238:1-505,P28700:1-467); assay: EMSA; competed by excess (10 or 100-fold tested) unlabeled Rev-DR2; conditions: tags: pSG5-mPPAR-gamma and pSG5-mRXR-alpha, rabbit reticulocyte lysate; label: end-labeled
# Procedure: Binding competition experiments were performed by adding a 0, 10 or 100-fold excess of unlabeled Rev-DR2 oligonucleotide.
# (§1) The pSG5-mPPAR-gamma, pSG5-mRXR-alpha and pSG5-hRev-erb alpha plasmids were transcribed in vitro with T7 polymerase and translated with the rabbit reticulocyte lysate system (Promega, Madison, Wis., USA). Gel shift experiments with REV-ERB ALPHA, PPAR GAMMA and/or RXR ALPHA proteins were carried out as previously described (Gervois, P. et al., Molecular Endocrinology 1999, 13(3): 400-409; Vu-Dac, N. et al., J. Biol. Chem. 1994, 269(49): 31012-31018). For the competition experiments, increasing quantities of the indicated unlabeled probe were added immediately before adding the labeled oligonucleotide. The complexes were resolved in 5% polyacrylamide gels using […] buffer (90 mM borate, 2.5 mM EDTA, pH 8.3) at room temperature. Gels were dried and exposed overnight at −70° C. on Rayon-X film (XOMAT-AR, Eastman Kodak, Rochester, N.Y., USA).
# Lastly, binding of the PPAR GAMMA receptor to the Rev-DR2 site was studied. A test to measure electrophoretic mobility (gel shift or electrophoretic mobility shift assay) was carried out using PPAR GAMMA and RXR ALPHA proteins synthesized in vitro. […]
# RXR ALPHA = biological target: T1, RXR ALPHA; assay: EMSA; RXR alpha alone; conditions: tags: pSG5-mRXR-alpha, rabbit reticulocyte lysate; label: end-labeled
# Procedure: (§2) The electrophoretic gel shift studies were carried out by using the indicated end-labeled oligonucleotides, in the presence of the murine PPAR GAMMA receptor, murine RXR ALPHA receptor, human REV-ERB ALPHA receptor produced by reticulocyte lysate, or non-programmed lysates (lysate). Binding competition experiments were performed by adding a 0, 10 or 100-fold excess of unlabeled Rev-DR2 oligonucleotide.
# as §1
# (§3) Lastly, binding of the PPAR GAMMA receptor to the Rev-DR2 site was studied. […]
# PPAR GAMMA = PPAR GAMMA (Mus musculus, UniProt P37238 P37238:1-505); assay: EMSA; PPAR gamma alone; conditions: tags: pSG5-mPPAR-gamma, rabbit reticulocyte lysate; label: end-labeled
# Procedure: as §2, §1, §3
# REV-ERB ALPHA (NR1D1) = biological target: T2, REV-ERB ALPHA (NR1D1); assay: EMSA; binds as monomer and homodimer; conditions: tags: expressed from pSG5-hRev-erb alpha, rabbit reticulocyte lysate; label: end-labeled
# Procedure: as §2, §1, §3
binder,measurement,setting,value
Rev-DR2 (dsDNA) DNA 1: AAAAGTGTGTCACTGGGGCA DNA 2: TGCCCCAGTGACACACTTTT,binding result,[1],binds
same,binding result,RXR ALPHA,no binding
same,binding result,PPAR GAMMA,no binding
same,binding result,REV-ERB ALPHA (NR1D1),binds
